Measured values: the supplement of paper PMC10567573

B1: C9orf25 (parent)
chain: LARKGSLKNGSMGSPVNQQPKKNN

Variants of: B1
Assay: protein stability index of a GFP-peptide fusion (GPS, HEK-293T) (PSI 1-6); higher = more stable
Conditions: c terminus: a fixed tail appended
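Note: lentivirally expressed fusions sorted by FACS into six bins by GFP to DsRed ratio, PSI derived from sequencing read proportions per bin multiplied by bin number.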

Protein stability index, by site and new letter:
S14: V 4.77; W 4.13; Y 4.25
P15: A 4.42; C 4.48; D 5.45; E 4.53; F 4.2; G 5; H 4.24; I 4.66; K 4.34; L 4.59; M 4.66; N 4.42; Q 5.26; R 3.8; S 4.26; T 4.95; V 4.62; W 4.27; Y 4.4
V16: A 4.69; C 4.23; D 4.85; E 5.39; F 3.91; G 4.75; H 5.1; I 4.79; K 4.14; L 4.64; M 4.62; N 4.4; P 4.89; Q 5; R 4.69; S 4.68; T 4.75; W 4.01; Y 3.87
N17: A 4.25; C 4.53; D 5.12; E 5.07; F 4.31; G 4.27; H 5.11; I 4.72; K 4.47; L 4.64; M 4.83; P 4.95; Q 4.74; R 4.47; S 4.54; T 3.98; V 4.6; W 3.62; Y 4.27
Q18: A 4.74; C 4.6; D 5.17; E 5.18; F 4.4; G 4.37; H 4.82; I 4.52; K 5.08; L 4.32; M 4.64; N 4.59; P 4.55; R 4; S 4.97; T 5.01; V 4.64; W 3.67; Y 4.17
Q19: A 4.92; C 4.68; D 4.78; E 4.73; F 4.5; G 5.02; H 4.69; I 4.85; K 4.22; L 4.67; M 4.74; N 4.72; P 4.39; R 4.45; S 4.89; T 4.74; V 4.86; W 3.79; Y 4.58
P20: A 4.54; C 4.54; D 5.23; E 4.59; F 4.03; G 4.5; H 3.98; I 4.65; K 4.36; L 4.11; M 4.56; N 4.67; Q 4.72; R 4.25; S 4.34; T 3.92; V 5.07; W 4.1; Y 4.32
K21: A 4.7; C 3.98; D 5.25; E 4.87; F 4.07; G 4.25; H 4.9; I 4.28; L 4.25; M 4.21; N 4.65; P 4.18; Q 4.48; R 4.82; S 4.3; T 4.39; V 4.32; W 2.95; Y 4
K22: A 4.51; C 4.49; D 4.21; E 5.05; F 3.56; G 4.54; H 4.02; I 3.8; L 3.81; M 4.49; N 4.43; P 4.42; Q 4.82; R 4.37; S 4.41; T 4.28; V 3.17; W 3.9; Y 3.81
N23: A 4.63; C 4.68; D 5.02; E 4.68; F 4.19; G 4.66; H 4.91; I 4.61; K 4.61; L 4.04; M 3.73; P 5.24
